These results are taken from patent publication US8765444 (BOARD OF TRUSTEES OF THE UNIVERSITY OF ILLINOIS, dated 2014).

The target in assay [1] is T1, TBK1 (as used in Example 6; construct not named) (Homo sapiens (Human), UniProt Q9UHD2 1-729).
T1 construct: also called HA-TBK1 (constructed, probably the one used)
T1 sequence: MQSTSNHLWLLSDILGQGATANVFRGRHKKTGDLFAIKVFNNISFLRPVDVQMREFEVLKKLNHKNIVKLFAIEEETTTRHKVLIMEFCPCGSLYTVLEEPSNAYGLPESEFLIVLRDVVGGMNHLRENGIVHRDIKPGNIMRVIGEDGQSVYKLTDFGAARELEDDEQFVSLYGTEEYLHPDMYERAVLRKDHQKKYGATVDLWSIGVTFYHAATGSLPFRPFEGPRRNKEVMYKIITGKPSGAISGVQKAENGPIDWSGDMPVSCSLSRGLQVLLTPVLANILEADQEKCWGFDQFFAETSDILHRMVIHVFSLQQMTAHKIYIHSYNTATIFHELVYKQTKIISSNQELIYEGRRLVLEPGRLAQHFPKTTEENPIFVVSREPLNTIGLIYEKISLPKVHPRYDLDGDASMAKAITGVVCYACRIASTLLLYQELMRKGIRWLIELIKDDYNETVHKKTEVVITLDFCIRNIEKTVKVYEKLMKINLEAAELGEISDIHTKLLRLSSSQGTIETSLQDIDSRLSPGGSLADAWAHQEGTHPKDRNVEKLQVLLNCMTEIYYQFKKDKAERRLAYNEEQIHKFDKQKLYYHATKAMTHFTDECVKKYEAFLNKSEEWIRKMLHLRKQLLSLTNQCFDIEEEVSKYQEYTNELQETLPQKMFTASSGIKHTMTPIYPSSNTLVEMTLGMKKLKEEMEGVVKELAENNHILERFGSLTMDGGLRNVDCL
Briefly: co-immunoprecipitation from transfected 293T cells.

The target in the next assay is T2, HA-γ134.5 (HSV-1, UniProt P08353 1-263).
T2 sequence: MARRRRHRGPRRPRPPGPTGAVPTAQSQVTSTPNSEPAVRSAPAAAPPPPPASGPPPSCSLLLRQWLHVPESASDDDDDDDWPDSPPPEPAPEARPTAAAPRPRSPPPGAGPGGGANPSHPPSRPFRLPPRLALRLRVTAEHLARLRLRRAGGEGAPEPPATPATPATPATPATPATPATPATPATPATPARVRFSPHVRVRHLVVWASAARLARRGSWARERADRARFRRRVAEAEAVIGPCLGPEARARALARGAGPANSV
Nature of the assay: co-immunoprecipitation from transfected 293T cells.

B1: FLAG-γ134.5 Δ106 (other)
chain: MARRRRHRGPRRPRPPGPTGAVPTAQSQVTSTPNSEPAVRSAPAAAPPPPPASGPPPSCSLLLRQWLHVPEPPGAGPGGGANPSHPPSRPFRLPPRLALRLRVTAEHLARLRLRRAGGEGAPEPPATPATPATPATPATPATPATPATPATPATPARVRFSPHVRVRHLVVWASAARLARRGSWARERADRARFRRRVAEAEAVIGPCLGPEARARALARGAGPANSV
notes: the printed limits overlap with the neighbouring deletions, so the exact junction is uncertain
On to B1, for which, in assay [1], the binding result was “no binding”.

B2: FLAG-dN200, a truncated form of Ebola VP35 (other)
chain: NNLNSTTSLTEENFGKPDISAKDLRNIMYDHLPGFGTAFHQLVQVICKLGKDSNSLDIIHAEFQASLAEGDSPQCALIQITKRVPIFQDAAPPVIHIRSRGDIPRACQKSLRPVPPSPKIDRGWVCVFQLQDGKTLGLKI
notes: also called control protein dN200
On to B2, for which, in the assay with HA-γ134.5, the binding result is “no binding”.
